Experimental data as given in patent publication US20230322943A1 (SUNSHINE GUOJIAN PHARMACEUTICAL SHANGHAI, published 2023).

B1: 50G12-Humanized (antibody, human IgG1, kappa, V domains shown)
VH: QVQLVQSGAEVKKPGASVKVSCKASGYTFNTYWMQWVRQAPGQGLEWMGAIYPGDGDITYNQKFKGRVTLTADKSTSTVYMELSSLRSEDTAVYYCAREGYYYGGALDYWGQGTLVTVSS
VL: DIQMTQSPSSLSASVGDRVTITCTASSSVSSSYLHWYQQKPGKAPKLWMYGTSNLASGVPSRFSGSGSGTDYTLTISSLQPEDFATYYCHRYHRSPWTFGQGTKVEIKR
notes: Human IgG1 / Kappa; also called humanized antibody 50G12-Humanized; 50G12-Hu-HC / 50G12-Hu-LC
B2: murine antibody 50G12 (antibody, V domains shown)
VH: QVQLQQSGAELARPGASVKLSCKASGYTFNTYWMQWVKQRPGQGLEWIGAIYPGDGDITYNQKFKGKATLTADKSSNTAYMHLSSLASEDSAVYYCAREGYYYGGALDYWGQGTSVTVSS
VL: QIFLTQSPAIMSASLGERVTMTCTASSSVSSSYLHWYQQKPGSPPKLWMYGTSNLASGVPPRFSGSGSGTSYSLTISSMEAEDAATYYCHRYHRSPWTFGGGTKLEIK
notes: Mouse monoclonal antibody purified from hybridoma supernatant by Protein G; also called 50Ga12; 50G12 murine antibody
B3: 50G12-Chimeric (antibody, human IgG1, V domains shown)
VH: QVQLQQSGAELARPGASVKLSCKASGYTFNTYWMQWVKQRPGQGLEWIGAIYPGDGDITYNQKFKGKATLTADKSSNTAYMHLSSLASEDSAVYYCAREGYYYGGALDYWGQGTSVTVSS
VL: QIFLTQSPAIMSASLGERVTMTCTASSSVSSSYLHWYQQKPGSPPKLWMYGTSNLASGVPPRFSGSGSGTSYSLTISSMEAEDAATYYCHRYHRSPWTFGGGTKLEIK
notes: Murine 50G12 VH joined to the human IgG1 heavy chain constant region and murine 50G12 VL joined to the human Kappa chain constant region; also called 50G12-Chimeic; 50G12-Chi-HC / 50G12-Chi-LC

What was measured:
[1] = molecular target: T1, human full-length CD38 on cells (human, UniProt P28907 1-300); assay: cell-based or functional assay
[2] = molecular target: T1, human full-length CD38 on cells; assay: flow cytometry on Daudi cells (MFI), FITC goat anti-human Fc secondary antibody
Experimental: After Daudi cells were counted, PBS solution containing 1% BSA was used to inoculate the cells into 96-well round-bottom culture plates with 2×10⁵ cells per well. 50 µl anti-CD38 antibody in gradient dilution with PBS solution was added to the 96-well plate. The plate was incubated at room temperature for 1 h, then it was centrifuged to discard the supernatant. Then the cells was washed with PBS twice. FITC-labeled goat anti-human (Fc-Speicific) antibody was added (1:1000 diluted with PBS containing 1% BSA) and the plate was incubated at room temperature for half an hour. The cells was centrifuged and washed, then the Mean Fluorescence Intensity (MFI) of the FITC channel was detected by flow cytometry. The flow cytometer software was used to process the experimental data and the mean fluorescence intensity was calculated. The GraphPad Prism6 was used for data analysis and mapping, and EC50 was calculated.

human CD38-Fc protein = molecular target: T2, human CD38-Fc protein (human, UniProt P28907 43-300); assay: indirect ELISA, CD38-Fc coated at 1 ug/ml, HRP goat anti-mouse IgG
T2 construct: extracellular domain; Recombinant Fc-tagged extracellular segment of human CD38; not shown: Fc tag

[3] = molecular target: T1, human full-length CD38 on cells; assay: flow cytometry on DND-41 tumor cells, PE secondary antibody
Text: (§1) Flow cytometry was used to detect the binding activity of murine antibodies to recombinant high-expression cell line CHOS-CD38 cells and tumor cell line DND-41 cells. The specific methods were as follows:
(§2) CHOS-CD38 and DND-41 cells were collected, centrifuged to remove the cell culture medium, and the cells were washed twice with PBS buffer. The cells were counted and diluted with 1%BSA FACS buffer to 2^{∗}10⁶ cells/ml. The cells were spread into round-bottom 96-well plate for use. The antibody to be tested was diluted with 1%BSA buffer for 8 gradients and added to the round-bottom plate with the above cells. The plate was incubated at 4° C. for 1 hour. After centrifugation, the supernatant was removed and the plate was washed 3 times with 1% BSA FACS buffer. 100 µl donkey anti-mouse PE fluorescent secondary antibody or goat anti-human PE fluorescent secondary antibody was added to each well at a ratio of 1:300 (see the instructions for fluorescent secondary antibody for details), and the plate was incubated at 4° C. for 1 hour. The samples were washed for 3 times with 1% BSA FACS buffer and then re-suspended with 1% BSA FACS buffer at 200 µl/well. FACScalibur BD was used to analyze the samples.

[4] = molecular target: T1, human full-length CD38 on cells; assay: flow cytometry on CHOS-CD38 cells, PE secondary antibody
Text: as §1, §2

Binder | ADCC EC50 (Daudi target cells, human PBMC effectors, LDH release) [1] [nM] | apoptosis induction EC50 (Daudi cells, Annexin V-FITC) [1] [nM] | EC50 [2] [nM] | EC50 (human CD38-Fc protein) [nM] | EC50 [3] [µg/mL] | EC50 [4] [µg/mL]
B1 | 0.106 | 0.568 | 0.605 |  |  | 
B2 |  |  |  | 0.173 | 0.134 | 0.687
B3 |  |  | 0.528 |  |  | 
